pKd: −log10 of the molar value. Where two headings read alike, the source gives them in different places.
Columns and labels:
[1] = target: FabA (rabbit Fab with the anti-HSA nanobody ALB8 fused to the C-terminus of the heavy chain) (rabbit); experiment: SPR; Fab captured by its His6 tag on an immobilised anti-His antibody (CM3 chip, about 15 RU); albumin 22.2-1800 nM injected; HBS-P+ (10 mM HEPES, 150 mM NaCl, pH 7.4, 0.05% P20), 25 °C; Langmuir 1:1 model
[2] = target: Radiolabeled FabA (3H-labeled FabA) (rabbit); experiment: SEC; radio-SEC; 3H-FabA (0.57 or 5.7 µM) incubated in cynomolgus monkey vitreous humor at endogenous albumin (0.53 µM), 37 °C
[3] = target: Radiolabeled FabA (3H-labeled FabA) (rabbit); experiment: SEC; radio-SEC of dosing formulations, 3H-FabA with equimolar albumin; 100 mM sodium phosphate pH 7.4, 10% ethanol
[4] = target: Radiolabeled FabA (3H-labeled FabA) (rabbit); experiment: SEC; radio-SEC; 3H-FabA (0.57 or 5.7 µM) incubated in cynomolgus monkey vitreous humor supplemented with 50, 100 and 250 µM CSA, 37 °C
[5] = target: Radiolabeled FabA (3H-labeled FabA) (rabbit)
[6] = target: FabA (rabbit Fab with the anti-HSA nanobody ALB8 fused to the C-terminus of the heavy chain) (rabbit); experiment: SPR; Fab captured by its His6 tag on an immobilised anti-His antibody (CM3 chip, about 15 RU); albumin 22.2-1800 nM injected; HBS-P+ (10 mM HEPES, 150 mM NaCl, pH 7.4, 0.05% P20), 25 °C; Langmuir 1:1 model; remark: listed apart in the source
[7] = target: Radiolabeled FabA (3H-labeled FabA) (rabbit); experiment: as above

pKd [1] | koff [1] | kon [1] | stoichiometry N [2] | stoichiometry N [3] | stoichiometry N [4] | vitreous humor exposure (AUCinf) of 3H-FabA in rabbits after intravitreal injection of 0.05 mg co-formulated with 1 or 15 nmol HSA (104 and 230 h∙nmol/mL; FabB control with 1 nmol HSA 72.8) [5] | vitreous humor half-life (t1/2) of 3H-FabA in rabbits after intravitreal injection of 0.05 mg co-formulated with 1 or 15 nmol HSA (58.0 and 149 h; FabB control with 1 nmol HSA 52.1 h) [5] | pKd [6] | pKd [7] | Substance
7.18 | 0.0065 s⁻¹ | 99000 M⁻¹ s⁻¹ | 1 | 1 | 2 |  |  |  |  | Cynomolgus serum albumin (from UniProt A2V9Z4 25-608) (natural protein)
7.26 |  |  |  |  |  | 230 nmol·h/mL | 149 h | 7.00 | 7.01 | Human serum albumin (from UniProt P02768 25-609) (natural protein)

Source: paper PMC7559355
